The chains are these.
B1: glmS ribozyme (parent)
chain: AUAAAAGCGCCAGAACUACAGAAAUGUAGUUGACGAGGAGGAGGUUUAUCGAAUUUUCGGCGGAUGCCUCCAAA

± gives the standard error. For some of these results: This sample holds only a part of the variants without activity. A value given as a limit tells only on which side of the number the result lay.

Conditions in all cases: with glucosamine-6-phosphate
In series [1] the parent is B1. Nature of the series: kcat; higher = faster cleavage; RNA array. In a few lines:
(§1)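 Sequenced MiSeq chips were the platform: E. coli RNA polymerase transcribed barcoded ribozyme variants on them in situ, and a hybridised Cy3 probe tracked these at 37 °C. After glucosamine-6-phosphate (40 μM to 10 mM) in HEPES/KCl/Mg(OAc)2 buffer was flowed in, tiles were imaged over ~14 h. Signals normalised to baseline and to non-cleaving reference variants were reduced to per-tile medians and fit to one- or two-exponential decays to obtain kobs. kcat and KM were derived through weighted Michaelis–Menten fits across concentrations.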

In series [2] the parent is B1. Nature of the series: KM; higher = weaker cofactor use; RNA array. In a few lines:
as §1

Variants of B1 are the subject of series [3]. Nature of the series: self-cleavage kobs at 40 uM GlcN6P; higher = faster cleavage; RNA array. In a few lines: as §1
The variants in series [4] derive from B1. Nature of the series: self-cleavage kobs at 160 uM GlcN6P; higher = faster cleavage; RNA array. In a few lines: as §1
In series [5] the parent is B1. In words: self-cleavage kobs at 640 uM GlcN6P; higher = faster cleavage; RNA array. In a few lines:
as §1

In series [6] the parent is B1. Nature of the series: self-cleavage kobs at 2500 uM GlcN6P; higher = faster cleavage; RNA array. In a few lines: as §1
In series [7] the parent is B1. Nature of the series: self-cleavage kobs at 10000 uM GlcN6P; higher = faster cleavage; RNA array. In a few lines: as §1

The source of these data is the supplement of paper PMC7125110.

As a reminder, the kcat is the maximal rate divided by the concentration of active sites. As a reminder, the KM is the substrate concentration at which the rate is half of its maximum.

Take U31C G32A: in the series with glucosamine-6-phosphate [1], the kcat is 0.0022 ± 0.00058 s⁻¹. For the same variant, the KM with glucosamine-6-phosphate [2] was found to be 6580 ± 2400 µM. In addition, the “self-cleavage kobs at 40 uM GlcN6P” value with glucosamine-6-phosphate [3] stood at 4.27e-05 ± 1.5e-05 s⁻¹. In addition, the “self-cleavage kobs at 160 uM GlcN6P” value in the series with glucosamine-6-phosphate [4] came to 6.8e-05 ± 1.3e-05 s⁻¹. The “self-cleavage kobs at 640 uM GlcN6P” value with glucosamine-6-phosphate [5] was found to be 0.000179 ± 2.1e-05 s⁻¹. Besides, the “self-cleavage kobs at 2500 uM GlcN6P” value with glucosamine-6-phosphate [6] was 0.000604 ± 7.5e-05 s⁻¹. In addition, the “self-cleavage kobs at 10000 uM GlcN6P” value with glucosamine-6-phosphate [7] worked out at 0.00134 ± 0.00014 s⁻¹.
As to G29A U47A, the kcat with glucosamine-6-phosphate [1] came to 0.00354 ± 0.0016 s⁻¹. For the same variant, in the series with glucosamine-6-phosphate [3], the “self-cleavage kobs at 40 uM GlcN6P” value turned out to be 0.000101 ± 1.2e-05 s⁻¹. Besides, in the series with glucosamine-6-phosphate [4], the “self-cleavage kobs at 160 uM GlcN6P” value is 0.000152 ± 2.6e-05 s⁻¹. The “self-cleavage kobs at 640 uM GlcN6P” value with glucosamine-6-phosphate [5] came to 0.000727 ± 0.00012 s⁻¹. Besides, in the series with glucosamine-6-phosphate [6], the “self-cleavage kobs at 2500 uM GlcN6P” value was found to be 0.00153 ± 0.00024 s⁻¹. In addition, in the series with glucosamine-6-phosphate [7], the “self-cleavage kobs at 10000 uM GlcN6P” value was 0.00308 ± 0.00042 s⁻¹.
In the case of U31C U47A U56C, the turnover number (kcat) in the series with glucosamine-6-phosphate [1] stood at 0.00113 ± 0.00024 s⁻¹. In the series with glucosamine-6-phosphate [2], the KM stood at 5360 ± 1700 µM. The “self-cleavage kobs at 640 uM GlcN6P” value with glucosamine-6-phosphate [5] is 0.000111 ± 2.5e-05 s⁻¹. The “self-cleavage kobs at 2500 uM GlcN6P” value with glucosamine-6-phosphate [6] is 0.000487 ± 0.00011 s⁻¹. Further, the “self-cleavage kobs at 10000 uM GlcN6P” value with glucosamine-6-phosphate [7] turned out to be 0.000707 ± 0.00012 s⁻¹.
Regarding G29U G40U, the catalytic constant (kcat) with glucosamine-6-phosphate [1] came out at 0.000422 ± 3.9e-05 s⁻¹. In the series with glucosamine-6-phosphate [2], the Michaelis constant (KM) is 1290 ± 220 µM. For the same variant, the “self-cleavage kobs at 160 uM GlcN6P” value with glucosamine-6-phosphate [4] amounted to 4.21e-05 ± 1.1e-05 s⁻¹. Also, in the series with glucosamine-6-phosphate [5], the “self-cleavage kobs at 640 uM GlcN6P” value came out at 0.00014 ± 1.5e-05 s⁻¹. The “self-cleavage kobs at 2500 uM GlcN6P” value with glucosamine-6-phosphate [6] is 0.00032 ± 4.6e-05 s⁻¹. In the series with glucosamine-6-phosphate [7], the “self-cleavage kobs at 10000 uM GlcN6P” value turned out to be 0.000349 ± 4.9e-05 s⁻¹.
For the variant A14U G37U G63U, in the series with glucosamine-6-phosphate [1], the turnover number (kcat) is less than 1e-05 s⁻¹. Further, the “self-cleavage kobs at 40 uM GlcN6P” value with glucosamine-6-phosphate [3] was less than 1e-05 s⁻¹.
Consider G44U C68U, for which, in the series with glucosamine-6-phosphate [1], the kcat came to 2.53e-05 ± 4.3e-07 s⁻¹. Also, in the series with glucosamine-6-phosphate [2], the KM turned out to be 915 ± 100 µM. For the same variant, in the series with glucosamine-6-phosphate [3], the “self-cleavage kobs at 40 uM GlcN6P” value was less than 1e-05 s⁻¹. In the series with glucosamine-6-phosphate [7], the “self-cleavage kobs at 10000 uM GlcN6P” value is 2.31e-05 ± 7.7e-06 s⁻¹.
A12C: the kcat with glucosamine-6-phosphate [1] worked out at 0.042 ± 0.0066 s⁻¹. Besides, in the series with glucosamine-6-phosphate [2], the Michaelis constant (KM) was determined as 2170 ± 410 µM. Moreover, the “self-cleavage kobs at 40 uM GlcN6P” value in the series with glucosamine-6-phosphate [3] is 0.000794 ± 1.3e-05 s⁻¹. In addition, the “self-cleavage kobs at 160 uM GlcN6P” value with glucosamine-6-phosphate [4] stood at 0.00261 ± 0.00016 s⁻¹. Besides, in the series with glucosamine-6-phosphate [5], the “self-cleavage kobs at 640 uM GlcN6P” value was 0.00858 ± 0.00027 s⁻¹. The “self-cleavage kobs at 2500 uM GlcN6P” value with glucosamine-6-phosphate [6] came out at 0.0195 ± 0.00085 s⁻¹. For the same variant, in the series with glucosamine-6-phosphate [7], the “self-cleavage kobs at 10000 uM GlcN6P” value came out at 0.0393 ± 0.0013 s⁻¹.
Turning to A42G G51A, the kcat with glucosamine-6-phosphate [1] is less than 1e-05 s⁻¹. Also, the “self-cleavage kobs at 40 uM GlcN6P” value with glucosamine-6-phosphate [3] was less than 1e-05 s⁻¹. Besides, the “self-cleavage kobs at 10000 uM GlcN6P” value with glucosamine-6-phosphate [7] is less than 1e-05 s⁻¹.
A42G U57A: the turnover number (kcat) with glucosamine-6-phosphate [1] worked out at 0.000299 ± 4.6e-05 s⁻¹. Further, the “self-cleavage kobs at 40 uM GlcN6P” value in the series with glucosamine-6-phosphate [3] was less than 1e-05 s⁻¹. Besides, in the series with glucosamine-6-phosphate [5], the “self-cleavage kobs at 640 uM GlcN6P” value amounted to 0.000118 ± 3.7e-05 s⁻¹. Also, the “self-cleavage kobs at 2500 uM GlcN6P” value in the series with glucosamine-6-phosphate [6] stood at 0.000351 ± 0.00012 s⁻¹. For the same variant, the “self-cleavage kobs at 10000 uM GlcN6P” value with glucosamine-6-phosphate [7] came to 0.000266 ± 4.4e-05 s⁻¹.
Take A39C U46C: the kcat with glucosamine-6-phosphate [1] was determined as 0.00261 ± 0.00017 s⁻¹. For the same variant, in the series with glucosamine-6-phosphate [2], the Michaelis-Menten constant (KM) turned out to be 2740 ± 280 µM. For the same variant, the “self-cleavage kobs at 40 uM GlcN6P” value in the series with glucosamine-6-phosphate [3] amounted to 3.41e-05 ± 9.8e-06 s⁻¹. Also, the “self-cleavage kobs at 160 uM GlcN6P” value with glucosamine-6-phosphate [4] came out at 0.000168 ± 3.9e-05 s⁻¹. In addition, the “self-cleavage kobs at 640 uM GlcN6P” value with glucosamine-6-phosphate [5] turned out to be 0.000488 ± 6.6e-05 s⁻¹. Moreover, the “self-cleavage kobs at 2500 uM GlcN6P” value with glucosamine-6-phosphate [6] amounted to 0.00122 ± 0.00023 s⁻¹. Besides, the “self-cleavage kobs at 10000 uM GlcN6P” value with glucosamine-6-phosphate [7] amounted to 0.00206 ± 0.00025 s⁻¹.
Take U57C C71A: the kcat with glucosamine-6-phosphate [1] worked out at 2.47e-05 ± 4e-06 s⁻¹. Moreover, the “self-cleavage kobs at 2500 uM GlcN6P” value with glucosamine-6-phosphate [6] came out at 2.96e-05 ± 1e-05 s⁻¹.
For the variant U49G U65A, the kcat with glucosamine-6-phosphate [1] came to 2.22e-05 ± 4.5e-06 s⁻¹. For the same variant, the “self-cleavage kobs at 160 uM GlcN6P” value in the series with glucosamine-6-phosphate [4] is less than 1e-05 s⁻¹.
Regarding G35U C50A, in the series with glucosamine-6-phosphate [1], the kcat came out at 8.05e-05 ± 9.8e-06 s⁻¹. Further, in the series with glucosamine-6-phosphate [2], the Michaelis-Menten constant (KM) is 1970 ± 740 µM. The “self-cleavage kobs at 2500 uM GlcN6P” value with glucosamine-6-phosphate [6] was 4.74e-05 ± 9e-06 s⁻¹. The “self-cleavage kobs at 10000 uM GlcN6P” value with glucosamine-6-phosphate [7] is 6.59e-05 ± 1.2e-05 s⁻¹.
Turning to A15G G62C U69G, the kcat in the series with glucosamine-6-phosphate [1] stood at 1.74e-05 ± 5.1e-06 s⁻¹.
As to A39C A48C, the catalytic constant (kcat) with glucosamine-6-phosphate [1] amounted to 7.62e-05 ± 2.8e-06 s⁻¹. In addition, the KM in the series with glucosamine-6-phosphate [2] is 3440 ± 350 µM. The “self-cleavage kobs at 2500 uM GlcN6P” value in the series with glucosamine-6-phosphate [6] amounted to 3.1e-05 ± 1.1e-05 s⁻¹. The “self-cleavage kobs at 10000 uM GlcN6P” value with glucosamine-6-phosphate [7] amounted to 5.69e-05 ± 9.4e-06 s⁻¹.
For the variant A12U A48U, in the series with glucosamine-6-phosphate [1], the kcat came out at 0.0014 ± 0.00052 s⁻¹. Besides, in the series with glucosamine-6-phosphate [4], the “self-cleavage kobs at 160 uM GlcN6P” value was 7.62e-05 ± 1.5e-05 s⁻¹. Moreover, in the series with glucosamine-6-phosphate [5], the “self-cleavage kobs at 640 uM GlcN6P” value is 0.00024 ± 3.3e-05 s⁻¹. Further, in the series with glucosamine-6-phosphate [6], the “self-cleavage kobs at 2500 uM GlcN6P” value was 0.000479 ± 6.9e-05 s⁻¹. The “self-cleavage kobs at 10000 uM GlcN6P” value with glucosamine-6-phosphate [7] stood at 0.00139 ± 0.00023 s⁻¹.
